Literature values in PMC3157396, “Molecular Basis for the Recognition of Adenomatous Polyposis Coli by the Discs Large 1 Protein” (PLoS ONE, 2011).

System: PDZ1 and PDZ2 domains of PSD-95
Source text: The 3D structures of the three PDZ domains of DLG1 have been determined in the free forms [13]–[15]. They share very similar structures, and the ligand binding pockets are also conserved. […] The residues in the β2/β3 loop ...

B1: Kv1.4 potassium channel: Kv1.4 potassium channel (protein, UniProt P22459 1-653, looked up)
Potassium voltage-gated …: MEVAMVSAESSGCNSHMPYGYAAQARARERERLAHSRAAAAAAVAAATAAVEGSGGSGGGSHHHHQSRGACTSHDPQSSRGSRRRRRQRSEKKKAHYRQSSFPHCSDLMPSGSEEKILRELSEEEEDEEEEEEEEEEGRFYYSEDDHGDECSYTDLLPQDEGGGGYSSVRYSDCCERVVINVSGLRFETQMKTLAQFPETLLGDPEKRTQYFDPLRNEYFFDRNRPSFDAILYYYQSGGRLKRPVNVPFDIFTEEVKFYQLGEEALLKFREDEGFVREEEDRALPENEFKKQIWLLFEYPESSSPARGIAIVSVLVILISIVIFCLETLPEFRDDRDLVMALSAGGHGGLLNDTSAPHLENSGHTIFNDPFFIVETVCIVWFSFEFVVRCFACPSQALFFKNIMNIIDIVSILPYFITLGTDLAQQQGGGNGQQQQAMSFAILRIIRLVRVFRIFKLSRHSKGLQILGHTLRASMRELGLLIFFLFIGVILFSSAVYFAEADEPTTHFQSIPDAFWWAVVTMTTVGYGDMKPITVGGKIVGSLCAIAGVLTIALPVPVIVSNFNYFYHRETENEEQTQLTQNAVSCPYLPSNLLKKFRSSTSSSLGDKSEYLEMEEGVKESLCAKEEKCQGKGDDSETDKNNCSNAKAVETDV
In the case of B1, the “change of binding affinity on deletion of six residues from the β2/β3 loops (in words)” value is listed as “decreases the binding affinity”.
